Read-outs that look alike come from different tables or passages of the source.
Experiments:
Assay in all cases: ELISA
[1] = biological target: Collagen I
[2] = biological target: Collagen III
[3] = biological target: Collagen I; remark: listed apart in the source
[4] = biological target: Collagen III; remark: listed apart in the source

B1: CBD-SA (other)
chain: CSQPLDVILLLDGSSSFPASYFDEMKSFAKAFISKANIGPRLTQVSVLQYGSITTIDVPWNVVPEKAHLLSLVDVMQREGGPSQIGDALGFAVRYLTSEMHGARPGASKAVVILVTDVSVDSVDAAADAARSNRVTVFPIGIGDRYDAAQLRILAGPAGDSNVVKLQRIEDLPTMVTLGNSFLHKLCSGFVRIGGGSGGGSEAHKSEIAHRYNDLGEQHFKGLVLIAFSQYLQKCSYDEHAKLVQEVTDFAKTCVADESAANCDKSLHTLFGDKLCAIPNLRENYGELADCCTKQEPERNECFLQHKDDNPSLPPFERPEAEAMCTSFKENPTTFMGHYLHEVARRHPYFYAPELLYYAEQYNEILTQCCAEADKESCLTPKLDGVKEKALVSSVRQRMKCSSMQKFGERAFKAWAVARLSQTFPNADFAEITKLATDLTKVNKECCHGDLLECADDRAELAKYMCENQATISSKLQTCCDKPLLKKAHCLSEVEHDTMPADLPAIAADFVEDQEVCKNYAEAKDVFLGTFLYEYSRRHPDYSVSLLLRLAKKYEATLEKCCAEANPPACYGTVLAEFQPLVEEPKNLVKTNCDLYEKLGEYGFQNAILVRYTQKAPQVSTPTLVEAARNLGRVGTKCCTLPEDQRLPCVEDYLSAILNRVCLLHEKTPVSEHVTKCCSGSLVERRPCFSALTVDETYVPKEFKAETFTFHSDICTLPEKEKQIKKQTALAELVKHKPKATAEQLKTVMDDFAQFLDTCCKAADKDTCFSTEGPNLVTRCKDALAHHHHHH
Kd [1]: 1.8 nM
Kd [2]: 40.6 nM
Kd [3]: 1.8 nM
Kd [4]: 40.6 nM

Reference: patent publication US20220298225A1 (published 2022)
